Reference: patent US20160327558
Changes are numbered by the printed parent chain. Names and notes keep the numbering of the source.

Experiments:
[1] = molecular target: T1, FLAG-A20, P21580
T1 chain: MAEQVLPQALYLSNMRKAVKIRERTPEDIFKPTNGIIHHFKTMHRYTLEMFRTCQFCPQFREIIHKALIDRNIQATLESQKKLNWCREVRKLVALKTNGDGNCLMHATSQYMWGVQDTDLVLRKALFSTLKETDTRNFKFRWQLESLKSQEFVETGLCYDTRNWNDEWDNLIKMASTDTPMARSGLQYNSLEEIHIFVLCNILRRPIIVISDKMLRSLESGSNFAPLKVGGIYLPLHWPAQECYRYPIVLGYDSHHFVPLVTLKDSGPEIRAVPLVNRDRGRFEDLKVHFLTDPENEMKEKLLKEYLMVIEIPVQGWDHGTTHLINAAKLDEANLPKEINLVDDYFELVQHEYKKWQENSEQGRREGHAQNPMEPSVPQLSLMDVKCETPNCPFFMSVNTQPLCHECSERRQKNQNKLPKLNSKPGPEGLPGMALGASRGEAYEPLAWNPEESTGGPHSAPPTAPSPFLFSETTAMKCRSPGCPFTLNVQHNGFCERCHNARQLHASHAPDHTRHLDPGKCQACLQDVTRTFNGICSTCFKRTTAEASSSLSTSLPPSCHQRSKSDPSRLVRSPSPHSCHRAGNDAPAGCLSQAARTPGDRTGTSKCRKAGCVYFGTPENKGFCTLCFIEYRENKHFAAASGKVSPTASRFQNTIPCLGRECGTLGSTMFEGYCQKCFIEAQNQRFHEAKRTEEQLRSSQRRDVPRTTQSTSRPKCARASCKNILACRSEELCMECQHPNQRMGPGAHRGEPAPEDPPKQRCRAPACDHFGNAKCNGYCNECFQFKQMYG

[2] = molecular target: T2, probe 5 (FITC-LRSR-AOMK)
T2 chain: LRSR

[3] = molecular target: T3, z-VRPR-FMK (not fully specified)
T3 chain: VRPR

B1: FLAG-MALT1 wt (MALT1 Isoform B, overexpressed in Jurkat T cells) (protein)
chain: SLLGDPLQALPPSAAPTGPLLAPPAGATLNRLREPLLRRLSELLDQAPEGRGWRRLAELAGSRGRLRLSCLDLEQCSLKVLEPEGSPSLCLLKLMGEKGCTVTELSDFLQAMEHTEVLQLLSPPGIKITVNPESKAVLAGQFVKLCCRATGHPFVQYQWFKMNKEIPNGNTSELIFNAVHVKDAGFYVCRVNNNFTFEFSQWSQLDVCDIPESFQRSVDGVSESKLQICVEPTSQKLMPGSTLVLQCVAVGSPIPHYQWFKNELPLTHETKKLYMVPYVDLEHQGTYWCHVYNDRDSQDSKKVEIIIDELNNLGHPDNKEQTTDQPLAKDKVALLIGNMNYREHPKLKAPLVDVYELTNLLRQLDFKVVSLLDLTEYEMRNAVDEFLLLLDKGVYGLLYYAGHGYENFGNSFMVPVDAPNPYRSENCLCVQNILKLMQEKETGLNVFLLDMCRKRNDYDDTIPILDALKVTANIVFGYATCQGAEAFEIQHSGLANGIFMKFLKDRLLEDKKITVLLDEVAEDMGKCHLTKGKQALEIRSSLSEKRALTDPIQGTEYSAESLVRNLQWAKAHELPESMCLKFDCGVQIQLGFAAEFSNVMIIYTSIVYKPPEIIMCDAYVTDFPLDLDIDPKDANKGTPEETGSYLVSKDLPKHCLYTRLSSLQKLKEHLVFTVCLSYQYSGLEDTVEDKQEVNVGKPLIAKLDMHRGLGRKTCFQTCLMSNGPYQSSAATSGGAGHYHSLQDPFHGVYHSHPGNPSNVTPADSCHCSRTPDAFISSFAHHASCHFSRSNVPVETTDEIPFSFSDRLRISEK
- MALT1 cleavage of A20, analyzed by western blot [1]: only wt MALT1 is capable of cleaving its substrates

B2: FLAG-MALT1 active site mutant C464A (C453A in Isoform B) (protein)
chain: B1 chain with C452A
- MALT1 cleavage of A20, analyzed by western blot [1]: only wt MALT1 is capable of cleaving its substrates (the mutant does not cleave)

B3: MALT1 (in vitro cleavage assay of FIG. 3C) (protein)
chain: MSLLGDPLQALPPSAAPTGPLLAPPAGATLNRLREPLLRRLSELLDQAPEGRGWRRLAELAGSRGRLRLSCLDLEQCSLKVLEPEGSPSLCLLKLMGEKGCTVTELSDFLQAMEHTEVLQLLSPPGIKITVNPESKAVLAGQFVKLCCRATGHPFVQYQWFKMNKEIPNGNTSELIFNAVHVKDAGFYVCRVNNNFTFEFSQWSQLDVCDIPESFQRSVDGVSESKLQICVEPTSQKLMPGSTLVLQCVAVGSPIPHYQWFKNELPLTHETKKLYMVPYVDLEHQGTYWCHVYNDRDSQDSKKVEIIIDELNNLGHPDNKEQTTDQPLAKDKVALLIGNMNYREHPKLKAPLVDVYELTNLLRQLDFKVVSLLDLTEYEMRNAVDEFLLLLDKGVYGLLYYAGHGYENFGNSFMVPVDAPNPYRSENCLCVQNILKLMQEKETGLNVFLLDMCRKRNDYDDTIPILDALKVTANIVFGYATCQGAEAFEIQHSGLANGIFMKFLKDRLLEDKKITVLLDEVAEDMGKCHLTKGKQALEIRSSLSEKRALTDPIQGTEYSAESLVRNLQWAKAHELPESMCLKFDCGVQIQLGFAAEFSNVMIIYTSIVYKPPEIIMCDAYVTDFPLDLDIDPKDANKGTPEETGSYLVSKDLPKHCLYTRLSSLQKLKEHLVFTVCLSYQYSGLEDTVEDKQEVNVGKPLIAKLDMHRGLGRKTCFQTCLMSNGPYQSSAATSGGAGHYHSLQDPFHGVYHSHPGNPSNVTPADSCHCSRTPDAFISSFAHHASCHFSRSNVPVETTDEIPFSFSDRLRISEK
- in vitro protease activity measurements (cleavage of fluorescent substrates) [2]: probe 5 and also z-VRPR-FMK did not only inhibit MALT1
- in vitro protease activity measurements (cleavage of fluorescent substrates) [3]: probe 5 and also z-VRPR-FMK did not only inhibit MALT1

B4: recombinant Caspase-8 (protein)
chain: SESQTLDKVYQMKSKPRGYCLIINNHNFAKAREKVPKLHSIRDRNGTHLDAGALTTTFEELHFEIKPHDDCTVEQIYEILKIYQLMDHSNMDCFICCILSHGDKGIIYGTDGQEAPIYELTSQFTGLKCPSLAGKPKVFFIQACQGDNYQKGIPVETDSEEQPYLEMDLSSPQTRYIPDEADFLLGMATVNNCVSYRNPAEGTWYIQSLCQSLRERCPRGDDILTILTEVNYEVSNKDDKKNMGKQMPQPTFTLRKKLVFPSD
- in vitro protease activity measurements (DEVD-AMC cleavage) [2]: As expected, Caspase 8 activity was not affected by the diagnostic inhibitors of MALT1 of the present invention
